Reference: PMC10401862, “A high-throughput dual system to screen polyphosphate kinase mutants for efficient ATP regeneration in L-theanine biocatalysis” (Biotechnology for Biofuels and Bioproducts, 2023)

B1: ChPPK (Cytophaga hutchinsonii ATCC 33406) (protein)
chain: MATDFSKLSKYVETLRVKPKQSIDLKKDFDTDYDHKMLTKEEGEELLNLGISKLSEIQEKLYASGTKSVLIVFQAMDAAGKDGTVKHIMTGLNPQGVKVTSFKVPSKIELSHDYLWRHYVALPATGEIGIFNRSHYENVLVTRVHPEYLLSEQTSGVTAIEQVNQKFWDKRFQQINNFEQHISENGTIVLKFFLHVSKKEQKKRFIERIELDTKNWKFSTGDLKERAHWKDYRNAYEDMLANTSTKQAPWFVIPADDKWFTRLLIAEIICTELEKLNLTFPTVSLEQKAELEKAKAELVAEKSSD
notes: synthesized gene expressed in E. coli BL21(DE3) from pXMJ-19, Ni-NTA purified
B2: ChPPK (Cytophaga hutchinsonii ATCC 33406; K103E) (protein)
chain: MATDFSKLSKYVETLRVKPKQSIDLKKDFDTDYDHKMLTKEEGEELLNLGISKLSEIQEKLYASGTKSVLIVFQAMDAAGKDGTVKHIMTGLNPQGVKVTSFEVPSKIELSHDYLWRHYVALPATGEIGIFNRSHYENVLVTRVHPEYLLSEQTSGVTAIEQVNQKFWDKRFQQINNFEQHISENGTIVLKFFLHVSKKEQKKRFIERIELDTKNWKFSTGDLKERAHWKDYRNAYEDMLANTSTKQAPWFVIPADDKWFTRLLIAEIICTELEKLNLTFPTVSLEQKAELEKAKAELVAEKSSD
notes: as for B1
B3: ChPPK (Cytophaga hutchinsonii ATCC 33406; D82N) (protein)
chain: MATDFSKLSKYVETLRVKPKQSIDLKKDFDTDYDHKMLTKEEGEELLNLGISKLSEIQEKLYASGTKSVLIVFQAMDAAGKNGTVKHIMTGLNPQGVKVTSFKVPSKIELSHDYLWRHYVALPATGEIGIFNRSHYENVLVTRVHPEYLLSEQTSGVTAIEQVNQKFWDKRFQQINNFEQHISENGTIVLKFFLHVSKKEQKKRFIERIELDTKNWKFSTGDLKERAHWKDYRNAYEDMLANTSTKQAPWFVIPADDKWFTRLLIAEIICTELEKLNLTFPTVSLEQKAELEKAKAELVAEKSSD
notes: as for B1

substrate: Nc1ncnc2c1ncn2[C@@H]1O[C@H](COP(=O)(O)OP(=O)(O)O)[C@@H](O)[C@H]1O; experiment: purified protein; format: biochemical, Cytophaga hutchinsonii; details: 100 mM Tris-HCl pH 8.0, 35 °C, MgCl2, ADP 0.1 to 5 mM, polyP6 as co-substrate

What does the source list for B1?
Km: 1390 ± 70 µM; kcat: 10 ± 0.13 s⁻¹; kcat/Km: 7220 M⁻¹ s⁻¹

For B2, which Km is on record?
Its Km is 810 ± 120 µM.

And the kcat?
The kcat was 19.69 ± 0.12 s⁻¹.

What about the kcat/Km of the same protein?
Its kcat/Km is 24300 M⁻¹ s⁻¹.

How did the Km turn out when B3 was run?
Its Km is 950 ± 30 µM.

And the kcat?
Its kcat is 15.05 ± 0.04 s⁻¹.

And the kcat/Km?
Its kcat/Km is 15800 M⁻¹ s⁻¹.
